This series can be described thus: label from the status in PepcDB records.
Turning to “MLEQILLGTYTRRASQGIYKIALDTTQGRLTEATLLLEETSPTYLALSQKGELFSVTSVDGEGGTAAYQPEMDHFNLLNKVTEEGAPPCYVAVDENRQLVYAANYHQGIVHVYRILEDGSLEDADKVIHTEPTGPHENQNNAHVHYTDLTPDQRLVVCDLGTDRVYTYNVSLDGKLSEIAQFVTEPGTGPRHLVFHPTKSLAYLFGELDSTVSVLSYDETDGSFTELQKVSTLPADYDAFNGGAAIRISSDGRFLYASNRGHNSIAVYAVSENGEAIERIQLISTEGDIPRDFDLDPSEDFIVVANQDSDNLTLYRRNQETGLLEMIQKDVAVPECVCVLFVLEHHHHHH”, the protein production result was “not failed”. “MLETDLEARMQILRESGFQESQGDDDTFAQRAEWFYQGRPLLLSLCLDLYNGYVTLLGRSSHQTRLKPTTSLPNQLLQDDDDCISDIDSVSEVSSEVESTLSFQQMKDPTAVSEKVDELVSQLVTASLDKEILKHELLHKDQQFHEASKTIELLKKFVMLLEMEKEVAVEENANLGYKLTSLLEENRELATEALFMKNEAVGLARCVLKMRDDHFHKVCILQNRIYSLQASRNSEPVSDKVSYGCFGLDKHKTKKKKENKTEEKKPGFKWLKKLNTINLFTKCSLNPSAAAPSCCTFDLPY”: the protein production entry is on record as “failed”. To “MLEVDVVRISVIVPIYNVKLYIERCVRSLMEQTLENIEFIFVNDCTPDDSMDILHYVLEEYPKRREQIKIIEHETNRGISAVRNTGLKNATGQYIIYCDSDDWVEKNMYEKLLVKALETSADIVGCDFFDDYVAHSTIRKQLFPQQSEKCVKKMLRGELHCGTWNKLVIKSLYERTKIDFPEGINMWEDVSTIIPLCFHATKIDYIPEALYHYIHHNVSSYTYSVTEKSLENLVASIQLLESFFLTNQCFKTFGEDLCFMKLTVKLNLLLGSKGELQKKRNMLYSSANRYIFSYSGMSWYWKIALWVASKKMLFCFNVMSCIERIIKKWKLEHHHHHH” belongs “failed”. To “MLFNRHNKTTDSLQQTIAEQSRLLEAIDRSMAVIEFDLQGNVLRANANFLQTLGYREDQVTGQPHRLFCTPEYVRSSDYQQLWNRLRSGQFESGTFERVASNGQSLWLEASYNPIRDASGAVYKVVKYALDVTARVQEEVEARNKLDAIDRAMAVIEFNLDGSIIGANSNFLSRMGYSLAEIKGKHHRMFCKPELINSSAYQDFWNRLNRGEFFNGQFERIDRHGRTLWLEANYNPVYDASGRLCKVVKYAADVTQQVEKHEQDAQSASQAYHISVQTRKVAEQGTGVIQQAASEMRQIAENIEGSSSLIARLGERSEQITAIVNTIRAIADQTNLLALNAAIEAARAGDQGRGFAVVADEVRQLAARTSGSTAEISSMIDMIQNETQQAIKSMDGTRERAAKGVQLADQAGTVILQIRDGASEAVEAVSMFANERGAP” belongs “failed”; to “MLFSASLIHRIEFAPQRELYFLALYRILEAGLIAALVFSPVSLLVDPESDPHLGTVVAVGYLLLATILLVWGRNERWFTPLVFGSTVADILAATLAIHALPKASAGIAMMLLFNVAAAAILLRLRFSMILAWIAGVAMLVEYIWTVLSEGDSSRSLAELLMFFTSYTAVAYMCHQAAQRARYSQALAEKRRAQIVNLAEINELIIRRMRTGVLVVDAANRIGLSNETAAALLGYDRQLVESDYDLATVAPELIMRLKCWRIGRHYEDTPLRLAPDQPEVQPRFVSLLADSGLTLIFLDDVSVVSRRAESLTLLALGRFSASLAHEIRNPLAAIKHASQLLEESSNLDKGDQRLLDIILKQCQRTNGIVESVLGLARRERANPENLDLVGFVSRFVDEYRQTLSSEYDNLEIQTLHSTVQALVDPRHLYQILAVLTHNALRYGRFPDTPAQVRIEVVYTGGSVGINVLDQGPGIPDAAVLQLFQPFFTTSDHGTGLGLYIARELCNANQSNLEYVAIPGGGACFRITLPGPYALIPN”, “failed”; to “MLGLFLIFWGLLLLLSLATFDLRDPSLNHVVSNPTEIRNGAGMFGSYLGGMLADAFGIAAFLWPVGFIGLGARYIIVSFDIAWWRWAGLLALSLCMVTAGAAWELSLGDVNAGGVLGDLLYRFSWKALSPRGSTLVWLFLCIIGLQLTFDISWTALFRRIVDKVRADLEAHPVSRPQLPELKLPRLGLPSGLHLPGRKGAEGNAPATLAVVDVTPDGSDSTNGAPSVVAREASTPRGMPVETDDFVLSEDRLQPPASELPFEVVLDADTDGVADLTADVESDISEGAGRPKAKMRRKSQLPPLDLLHSALNEDSRPDREVLEGKGLSLTNCLSDFGVQGELTRITPGPVVTMFEFRPAPGVKVSRIANLSDDLALALKAIAVRIQAPIPGTDTVGIEIPNETRETVCFKELLSSDTFKGASSLLTLAIGKDIAGRPTVADLSKMPHLLVAGATGAGKSVCLNSILLSILYKARPEDVKLLLVDPKRIELAVYADLPHLVHPVVTEMAHAKNALDWAVHEMDKRYEGMARLGVRNIAGYNQKLEDMGKERPADLADLEAMPYLVIIIDELADLMLTAAKEVETSIVRLAQLARAAGIHLILATQRPSVDVVTGLIKANFPCRISFQVTSKHDSRTILDTVGAEFLLGKGDMLFKPSGGKLQRLHGAFVSDDDVNGVVAFWKKQQPPSYKVDFAEWGNEGTLDGNGGSGGAGDLADDPVYAEAVEFVMGQGRASISLIQRRFRIGFNRAARYVEQMEQDGIIGPADGSKPRSVIRGKE”, “failed”. “MLGLKTSIIGRRVIYFQEITSTNEFAKTSYLEEGTVIVADKQTMGHGRLNRKWESPEGGLWLSIVLSPKVPQKDLPKIVFLGAVGVVETLKEFSIDGRIKWPNDVLVNYKKIAGVLVEGKGDKIVLGIGLNVNNKVPNGATSMKLELGSEVPLLSVFRSLITNLDRLYLNFLKNPMDILNLVRDNMILGVRVKILGDGSFEGIAEDIDDFGRLIIRLDSGEVKKVIYGDVSLRFL”: the protein production entry is listed as “not failed”.

Take “MLGLLRRLFDNNEREIARYYKQVVEPVNRLEAEVEKLPDLAAAYRELKEKHEKGASLDELLPMAFALTRESAKRYLGMRHFDVQLIGGAVLHEGKIAEMKTGEGKTLVATLAVALNALTGKGVHVVTVNDYLARRDAEWMGPVYRGLGLSVGVIQHASTPAERRKAYLADVTYVTNSELGFDYLRDNMAISPDQLVLRHDHPLHYAIIDEVDSILIDEARTPLIISGPAEKATDLYYKMAEIAKKLERGLPAEPGVRKEPTGDYTVEEKNRSVHLTLQGIAKAEKLLGIEGLFSPENMELAHMLIQAIRAKELYHRDRDYIVQDGQVIIVDEFTGRLMPGRRYGEGLHQAIEAKEGVRIERENQTLATITYQNFFRLYEKRAGMTGTAKTEEKEFQEIYGMDVVVVPTNRPVIRKDFPDVVYRTEKGKFYAVVEEIAEKYERGQPVLVGTISIEKSERLSQMLKEPRLYLPRLEMRLELFKKASQKQQGPEWERLRKLLERPAQLKDEDLAPFEGLIPPKGNLRTAWEGLKRAVHTLAVLRQGIPHQVLNAKHHAREAEIVAQAGRSKTVTIATNMAGRGTDIKLGGNPEYLAAALLEKEGFDRYEWKVELFIKKMVAGKEEEARALAQELGIREELLERIREIREECKQDEERVRALGGLFIIGTERHESRRIDNQLRGRAGRQGDPGGSRFYVSFDDDLMRLFASDRVIAMLDRMGFDDSEPIEHPMVTRSIERAQKRVEDRNFAIRKQLLQFDDVLSRQREVIYAQRRLILLGKDEEVKEAAIGMVEETVASLAENFLNPEVHPEDWDLEGLKATLLDTAPQLQDFPFAELRALKAEEAVERLVEAALKAYEAREAELSPPLMRAVERFVILNVVDNAWKEHLHNLDVLRQGIFLRGYGQKDPFQEYKIEATRLFNEMVAFIKSEVAKFLFRLKVEAEPVRPVREAPYVPVPEAKPEPSEVFGVERKRATPPPQPGLSRAERRRLMRQEKKRKK”: the protein production entry is on record as “not failed”. Regarding “MLGMGVFKQLIKGLYEWLLHSIDVATQHLVAIVLKISVVKYLIKEFHDRFIYFIDLIAQHFIIVALSSFLVLVFGVLIGVLVFYNSKARAFLLPVVNFLYTIPSLALFALFIPVIGVGLKNALLVLVLYGLLPIVHSTYNALKEVREEVIKAAIGLGCNPKELFFKVRFLLAIPQILAGLRIAVVMLVAMAGIGALIGAGGLGQAIFRGLNTQNTTLLVAGSLIIALFSVLADKFVSVFQHENALQRLFSQNATKKQKRRVYTNLAVFLFLLLASALWLIPRNAIEEKPLVVATKPSSEQYILGEILSLLLEKHHIPIKRAFGIGGGTMNIHPALIRGDFDLYVEYTGTAWVNTLKNPLTQKVDFETIKKRYEKEFNLLWVGLLGFNNTYSLAISKEDAQKYAIETFSDLAFHSPNFDFGAEFDFFEREDAFKGLVKAYRFHFRSLHEMDINLRYKSFESHKINALDVFTTDAQIKELDLKVLKDDKGFFPNYQAGIVIRKEIVKKYPEALEILEKLDSKISDEKMQDLNYQVEVLKKSPQIVAKDFLERLGL”, the protein production entry was “failed”.
